According to patent US20050261170A1 (published 2005):
Primed or numbered codes have the meaning given here. NTA′ = nitrilotriacetic acid residue (Asp with its nitrogen carboxymethylated)

Target: T1, onconase bearing a six His tag (Rana pipiens, UniProt P22069 1-104)
T1 construct: also called His-tagged onconase
T1 sequence: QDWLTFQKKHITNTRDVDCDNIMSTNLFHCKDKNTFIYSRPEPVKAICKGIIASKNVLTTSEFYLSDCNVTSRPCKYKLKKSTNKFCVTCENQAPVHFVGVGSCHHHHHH
Experiment: SPR (Biacore C1 chip): IMP 267 immobilised by a disulfide and loaded with NiCl2, flow cell without nickel as control, His-tagged onconase at 0-50 nM as analyte
Description: IMP 267 was bound to a Biacore® C1 sensor chip first by dissolving 0.0040 g of IMP 267 in 690 μL of 0.01 M, pH 4.3 formate buffer. The chip was activated for coupling of the peptide via a disulfide linkage using pyridyldithioelthylamine (“PDEA”) as described by Biacore. The Biacore® C1 chip was activated with a 10 μL aliquot of the recommended 1-ethyl-3-(3-dimethylaminoprolyl) carbodiimide (“EDC”)/N-hydroxysuccinimide (“NHS”) mixture at 5 μL/min in flow cells 1 & 2. The recommended PDEA solution, 35 μL (0.0047 g PDEA in 0.1 M, pH 8.5 Borate buffer) was added to the chip at flow cells 1 & 2. The peptide, 35 μL was added to flow cells 1 & 2 and the chip was quenched with an aliquot of cysteine (made from 0.0026 g cys, 0.0268 g NaCl, and 433 μL 0.1 M, pH 4.3 formate buffer) into cells 1 & 2. The chip was activated by adding nickel to only one flow cell using the other flow cell, without nickel, as the control. The activation was done at 40 μL/min using 100 μL of a 500 μM NiCl₂ solution in NTA buffer. A kinetics experiment was performed using the following concentrations of onconase bearing a six His tag (50 nM, 25 nM, 10 nM, 5 nM, 1 nM and 0 nM). […] The affinity of His-tagged onconase is accessed similarly.

Kd: 1.15 nM
B1: IMP 267 (peptide)
peptide: Ac-CK(NTA′)K(NTA′)K(NTA′)-NH2
modifications: also: Cys thiol coupled to Biacore C1 chip by disulfide (PDEA), loaded with Ni2+
notes: Synthetic tri-NTA peptide; also called peptide that includes nitrilotriacetic acid residues
